From US20150175992A1

Columns and labels:
Test in all cases: cell-based or functional assay
[1] = molecular target: Bacillus subtilis XynA variant G13Y/I77Y/K99Y/T104W/T110A/Y113D/R122F/K154R/N159D/Q175L (Bacillus subtilis) (UniProt P18429)
[2] = molecular target: Bacillus subtilis XynA variant G13Y/I77M/K99Y/T104W/T110A/Y113D/R122F/K154R/N159D/Q175L (Bacillus subtilis) (UniProt P18429)
[3] = molecular target: Bacillus subtilis XynA variant G13Y/T110A/Y113D/R122D/S162D/Q175L (Bacillus subtilis) (UniProt P18429)
[4] = molecular target: Bacillus subtilis XynA wildtype xylanase (SEQ ID No. 1) (Bacillus subtilis) (UniProt P18429)
[5] = molecular target: Bacillus subtilis XynA variant G13Y/I77L/K99Y/T104W/T110A/Y113D/R122F/K154R/N159D/Q175L (Bacillus subtilis) (UniProt P18429)
[6] = molecular target: Bacillus subtilis xylanase variant BS3 (wildtype with D11F/R122D mutations) (Bacillus subtilis) (UniProt P18429)
[7] = molecular target: Bacillus subtilis XynA variant G13Y/T110A/Y113D/R122D/W164F/Q175L (Bacillus subtilis) (UniProt P18429)
[8] = molecular target: Bacillus subtilis XynA variant G13Y/K99Y/T104W/T110A/Y113D/R122F/K154R/N159D/Q175/V81I (Bacillus subtilis) (UniProt P18429)
[9] = molecular target: Bacillus subtilis XynA variant G13Y/K99Y/T104W/T110A/Y113D/N114D/R122F/K154R/N159D/Q175L (Bacillus subtilis) (UniProt P18429)
[10] = molecular target: Bacillus subtilis XynA variant D11F/R122D/T110A/Y113A (Bacillus subtilis) (UniProt P18429)
[11] = molecular target: Bacillus subtilis XynA variant G13Y/T110A/Y113D/R122F/Q175L (Bacillus subtilis) (UniProt P18429)
[12] = molecular target: Bacillus subtilis XynA variant G13Y/G34K/T110A/Y113D/R122D/Q175L (Bacillus subtilis) (UniProt P18429)
[13] = molecular target: Bacillus subtilis XynA variant G13Y/T110A/Y113D/R122D/Q175L (Bacillus subtilis) (UniProt P18429)
[14] = molecular target: Bacillus subtilis XynA variant G13Y/K99Y/T104W/T110A/Y113D/I118V/R122F/K154R/N159D/Q175L (Bacillus subtilis) (UniProt P18429)
[15] = molecular target: Bacillus subtilis XynA variant G13Y/T110A/Y113D/R122D/K154R/N159D/Q175L (Bacillus subtilis) (UniProt P18429)
[16] = molecular target: Bacillus subtilis XynA variant G13Y/I77S/K99Y/T104W/T110A/Y113D/R122F/K154R/N159D/Q175L (Bacillus subtilis) (UniProt P18429)
[17] = molecular target: Bacillus subtilis XynA variant D11F/R122D/T110A (Bacillus subtilis) (UniProt P18429)
[18] = molecular target: Bacillus subtilis XynA variant G13Y/K99Y/T104W/T110A/Y113D/N114F/R122F/K154R/N159D/Q175L (Bacillus subtilis) (UniProt P18429)
[19] = molecular target: Bacillus subtilis XynA variant G13Y/K99Y/T104W/T110A/Y113D/R122F/K154R/N159D/Q175K (Bacillus subtilis) (UniProt P18429)
[20] = molecular target: Bacillus subtilis XynA variant G13Y/K99Y/T104W/T110A/Y113D/N114D/R122F/K154R/N159D/Q175K (Bacillus subtilis) (UniProt P18429)
[21] = molecular target: Bacillus subtilis XynA variant G13Y/T110A/Y113D/R122D/S162E/Q175L (Bacillus subtilis) (UniProt P18429)
[22] = molecular target: Bacillus subtilis XynA variant G13Y/K99Y/T104W/T110A/Y113D/R122F/K154R/N159D/Y166F/Q175L (Bacillus subtilis) (UniProt P18429)
[23] = molecular target: Bacillus subtilis XynA variant G13Y/K99Y/T104W/T110A/Y113D/N114Y/R122F/K154R/N159D/Q175K (Bacillus subtilis) (UniProt P18429)
[24] = molecular target: Bacillus subtilis XynA variant G13Y/K99Y/T104W/T110A/Y113D/N114Y/R122F/K154R/N159D/Q175L (Bacillus subtilis) (UniProt P18429)
[25] = molecular target: Bacillus subtilis XynA variant G13Y/K99Y/T104W/T110A/Y113D/R122F/K154R/N159D/Q175L (Bacillus subtilis) (UniProt P18429)
[26] = molecular target: Bacillus subtilis XynA variant G13Y/I77V/K99Y/T104W/T110A/Y113D/R122F/K154R/N159D/Q175L (Bacillus subtilis) (UniProt P18429)

% Activity @ 50 XIU/ml (residual xylanase activity) [1]: 37%
% Activity @ 50 XIU/ml (residual xylanase activity) [2]: 46%
% Activity @ 50 XIU/ml (residual xylanase activity) [3]: 40%
% Activity @ 5.6 XIU/ml (residual xylanase activity) [4]: 29%
% Activity @ 50 XIU/ml (residual xylanase activity) [5]: 75%
% Activity @ 5.6 XIU/ml (residual xylanase activity) [6]: 100%
% Activity @ 33.5 XIU/ml (residual xylanase activity) [6]: 100%
% Activity @ 50 XIU/ml (residual xylanase activity) [6]: 95%
% Activity @ 50 XIU/ml (residual xylanase activity) [7]: 29%
% Activity @ 50 XIU/ml (residual xylanase activity) [8]: 46%
% Activity @ 50 XIU/ml (residual xylanase activity) [9]: 79%
% Activity @ 5.6 XIU/ml (residual xylanase activity) [10]: 99%
% Activity @ 50 XIU/ml (residual xylanase activity) [11]: 65%
% Activity @ 50 XIU/ml (residual xylanase activity) [12]: 97%
% Activity @ 33.5 XIU/ml (residual xylanase activity) [13]: 50%
% Activity @ 50 XIU/ml (residual xylanase activity) [14]: 79%
% Activity @ 50 XIU/ml (residual xylanase activity) [15]: 32%
% Activity @ 50 XIU/ml (residual xylanase activity) [16]: 20%
% Activity @ 5.6 XIU/ml (residual xylanase activity) [17]: 98%
% Activity @ 33.5 XIU/ml (residual xylanase activity) [17]: 100%
% Activity @ 50 XIU/ml (residual xylanase activity) [18]: 79%
% Activity @ 50 XIU/ml (residual xylanase activity) [19]: 72%
% Activity @ 50 XIU/ml (residual xylanase activity) [20]: 79%
% Activity @ 50 XIU/ml (residual xylanase activity) [21]: 44%
% Activity @ 50 XIU/ml (residual xylanase activity) [22]: 68%
% Activity @ 50 XIU/ml (residual xylanase activity) [23]: 84%
% Activity @ 50 XIU/ml (residual xylanase activity) [24]: 78%
% Activity @ 50 XIU/ml (residual xylanase activity) [25]: 64%
% Activity @ 50 XIU/ml (residual xylanase activity) [26]: 45%
Substance: crude inhibitor preparation (containing both TAXI and XIP) from wheat (Triticum aestivum) flour
